Assay results published in patent publication US20250360126.

Test system: T1, NPM2 (embryonic NPM1 paralog)
T1 sequence (Q86SE8 1-214, species assumed, looked up): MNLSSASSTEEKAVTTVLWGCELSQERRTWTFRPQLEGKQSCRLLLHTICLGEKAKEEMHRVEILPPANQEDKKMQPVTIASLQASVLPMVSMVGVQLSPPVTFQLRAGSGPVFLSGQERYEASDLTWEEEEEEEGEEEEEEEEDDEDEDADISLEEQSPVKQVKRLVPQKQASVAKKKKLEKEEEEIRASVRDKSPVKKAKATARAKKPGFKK

B1: CCP5 (cytosolic carboxypeptidase-like 5) (enzyme, UniProt Q8NDL9 1-886, looked up, species assumed)
Cytosolic carboxypeptidase-like protein 5: MELRCGGLLFSSRFDSGNLAHVEKVESLSSDGEGVGGGASALTSGIASSPDYEFNVWTRPDCAETEFENGNRSWFYFSVRGGMPGKLIKINIMNMNKQSKLYSQGMAPFVRTLPTRPRWERIRDRPTFEMTETQFVLSFVHRFVEGRGATTFFAFCYPFSYSDCQELLNQLDQRFPENHPTHSSPLDTIYYHRELLCYSLDGLRVDLLTITSCHGLREDREPRLEQLFPDTSTPRPFRFAGKRIFFLSSRVHPGETPSSFVFNGFLDFILRPDDPRAQTLRRLFVFKLIPMLNPDGVVRGHYRTDSRGVNLNRQYLKPDAVLHPAIYGAKAVLLYHHVHSRLNSQSSSEHQPSSCLPPDAPVSDLEKANNLQNEAQCGHSADRHNAEAWKQTEPAEQKLNSVWIMPQQSAGLEESAPDTIPPKESGVAYYVDLHGHASKRGCFMYGNSFSDESTQVENMLYPKLISLNSAHFDFQGCNFSEKNMYARDRRDGQSKEGSGRVAIYKASGIIHSYTLECNYNTGRSVNSIPAACHDNGRASPPPPPAFPSRYTVELFEQVGRAMAIAALDMAECNPWPRIVLSEHSSLTNLRAWMLKHVRNSRGLSSTLNVGVNKKRGLRTPPKSHNGLPVSCSENTLSRARSFSTGTSAGGSSSSQQNSPQMKNSPSFPFHGSRPAGLPGLGSSTQKVTHRVLGPVREPRSQDRRRQQQPLNHRPAGSLAPSPAPTSSGPASSHKLGSCLLPDSFNIPGSSCSLLSSGDKPEAVMVIGKGLLGTGARMPCIKTRLQARPRLGRGSPPTRRGMKGSSGPTSPTPRTRESSELELGSCSATPGLPQARPPRPRSAPAFSPISCSLSDSPSWNCYSRGPLGQPEVCFVPKSPPLTVSPRV
- deglutamylation of substrate, blot (FIG. 2C): the CCP5 enzyme deglutamylates NPM2
